Results: patent publication US9512196B2, “Short-form human MD-2 as a negative regulator of toll-like receptor 4 signaling” (Cedars-Sinai Medical Center, priority 2008, dated 2016)

B1: MD-2s: alternatively spliced isoform of human MD-2 lacking exon 2, with D38G substitution; expressed and secreted protein sequences in Table 1 (protein, listed as Homo sapiens)
chain 1: MLPFLFFSTLFSSIFTEAQKQYWVCNSSDASISYTYCGRDLKQLYFNLYITVNTMNLPKRKEVICRGSDDDYSFCRALKGETVNTTISFSFKGIKFSKGKYKCVVEAISGSPEEMLFCLEFVILHQPNSN
chain 2: EAQKQYWVCNSSDASISYTYCGRDLKQLYFNLYITVNTMNLPKRKEVICRGSDDDYSFCRALKGETVNTTISFSFKGIKFSKGKYKCVVEAISGSPEEMLFCLEFVILHQPNSN

Experiments:
[1] = target: T1, TLR4 (Homo sapiens, UniProt O00206); assay: NF-κB luciferase reporter in HEK293 cells expressing TLR4, LPS stimulation; format: cell-based; details: for LPS-dependent NF-κB activation conferred by soluble protein: culture supernatants added to HEK293 cells stably transfected with TLR4 and NF-κB luciferase reporter; for LPS-mediated NF-κB activation on transient expression: plasmid transfected with CD14 into HEK293 TLR4/NF-κB reporter cells, LPS 250 ng/ml 6 h
T1 construct: expressed in transfected cells; host or cells: HEK293
Procedure: (§1) (A) HEK-293 cells stably transfected with TLR4 and a NF-κB reporter gene were treated with supernatants containing either MD-2 or MD-2s as described in the examples herein. Cells were left untreated or stimulated with LPS for 24 h. Mean relative stimulation of luciferase activity±S.D. for a representative experiment, each performed in triplicate, is shown. (B) HEK-293 cells stably transfected with TLR4 and a NF-κB reporter gene were transiently transfected with plasmids encoding for either MD-2, MD-2s or CD14 as shown. 24 h later, cells were left untreated or stimulated with LPS (250 ng/ml) for 6 h. Mean relative stimulation of luciferase activity±SD for a representative experiment, each performed in triplicate, is shown. (C) and (D) Supernatants were also collected and measured for IL-8 secretion.
(A) HEK293 cells were transiently transfected with plasmids encoding TLR4 and a NF-κB reporter gene in combination with MD-2 and MD-2s as indicated. 24 h later, cells were left untreated or incubated with LPS (250 ng/ml) for 5 h. Mean relative stimulation of luciferase activity±S.D. for a representative experiment from three separate experiments, each performed in triplicate, is shown. (B) HEK-293 cells stably transfected with TLR4 and a NF-κB reporter gene were treated with supernatants containing either MD-2 and MD-2s as depicted and left untreated or incubated with LPS for 24 h. Mean relative stimulation of luciferase activity±S.D. for a representative experiment from three separate experiments, each performed in triplicate, is shown.
HEK293 cells were transiently transfected with the expression vectors noted in combination with constructs encoding the NF-κB- and IL-8-luciferase reporter gene, and either the β-galactosidase gene or the phRL-TK report gene to normalize for transfection efficiency. In all cases, total DNA concentration was kept constant by supplementation with empty vector control. Following overnight incubation, cells were stimulated for 6 hours with 50 ng/ml LPS and then lysed, and luciferase activity was measured as described previously (Ohta et al. (2004) BIOCHEM BIOPHYS RES COMMUN 323, 1103-1108). Data are shown as mean±SD of three or more independent experiments and are reported as a percentage of LPS-stimulated NF-κB and IL-8 promoter activity, or relative luciferase activity.
(§2) The requirement for MD-2s in LPS mediated NF-κB activation was assessed. It has been shown that the soluble form of wild-type MD-2 confers LPS responsiveness to cells expressing TLR4; therefore, it was investigated if soluble MD-2s was also bioactive. Culture supernatants were obtained from HEK293 cells transiently expressing control vector, MD-2, or MD-2s, and incubated with HEK293 cells stably transfected with TLR4 and an NF-κB-dependent luciferase reporter gene.
MD-2s was tested to see if it needed to be transiently expressed in TLR4 reporter cells in order to mediate NF-κB activation following LPS stimulation. HEK293 cells stably transfected with TLR4 and an NF-κB-dependent luciferase reporter gene were transiently transfected with plasmids encoding CD14 in combination with either MD-2 or MD-2s, and subsequently treated with LPS.
HEK293 cells were transiently transfected with plasmids encoding CD14, TLR4, and wild-type MD-2 in conjunction with a plasmid encoding the NF-κB-dependent luciferase reporter gene in the presence or absence of a plasmid encoding MD-2s. […] Furthermore, we assessed the inhibitory role of soluble MD-2s following LPS stimulation. HEK293 cells stably transfected with TLR4 and an NF-κB-dependent luciferase reporter gene were incubated with supernatants obtained from HEK293 cells transiently expressing a constant amount of MD-2 with increasing concentrations of MD-2s.

[2] = target: T1, TLR4; assay: Confocal co-localization with CFP-tagged TLR4 in HEK293 cells; format: cell-based; details: confocal analysis, anti-Myc staining
Procedure: (A) Cells stably expressing CFP-tagged TLR4 were transiently transfected with plasmids encoding wild-type MD-2 (upper panels) or MD-2s (lower panels). 24 h later, cells were incubated with an anti-Myc antibody and cross-liked with Alexa 647-conjugated anti-mouse polyclonal secondary antibody. (B) HEK293 cells were transiently transfected with a plasmid encoding for Flag-tagged TLR4 (lane 2) and cotransfected with either a Myc-tagged MD-2 (lane 3) or a Myc-tagged MD-2s (lanes 1 and 4) expressing plasmid. Co-immunoprecipitation experiments were then performed using an anti-Flag antibody (lanes 2-4) or an IgG isotype control antibody (lane 1). Samples were fractionated by SDS-PAGE and immunoblotting with an anti-Myc antibody was performed. Experiment shown is representative of 4 separate experiments.
To address this possibility, co-localization studies to examine the cellular distribution of MD-2s with respect to TLR4 were performed. HEK293 cells stably expressing TLR4CFP were subsequently transiently transfected with a plasmid encoding either MD-2 (FIG. 4A, upper panel) or MD-2s (FIG. 4A, lower panel) and stained with an anti-Myc antibody. […] Next whether MD-2s is physically associated with TLR4 was assessed. […]

[3] = tested on: lung inflammation induced by LPS; assay: LPS-induced lung inflammation in mice after in vivo plasmid transfection; design: species or system mouse
Procedure: (A) MD-2s expression can be detected following in vivo transfection. RNA was isolated from lung tissue of wild-type mice at 48 h post in vivo transfection with control vector (lane 1), Myc-MD2 (lane 2) or a plasmid encoding MycMD-2s (lane 3) and reverse transcribed into cDNA. RT-PCR using human MD-2-specific primers (lanes 1-3) or murine GAPDH primers (lanes 4-6), was then performed. (B-E) Wild-type mice were transfected with control vector (EV, open bars) or a plasmid encoding MD-2s (black bars) 48 h before being challenged intratracheally with PBS or 10 μg of LPS, for 24 h. MD-2s expression reduced (B) IL-6 concentration in bronchoalveolar lavage fluid (BALF), (C) KC concentration in the lung homogenate, and (D) recruitment of polymorphonuclear leukocytes (PMN) into the lung.

[4] = target: T1, TLR4; assay: IL-8 secretion by HEK293 TLR4 reporter cells after LPS; format: cell-based
Procedure: as §1
as §2, with “gene. […]” for “gene.”

[5] = plasmid encoding MD-2s 48 h before 10 μg LPS intratracheally, 24 h, vs control vector

T1 sequence (O00206 24-839): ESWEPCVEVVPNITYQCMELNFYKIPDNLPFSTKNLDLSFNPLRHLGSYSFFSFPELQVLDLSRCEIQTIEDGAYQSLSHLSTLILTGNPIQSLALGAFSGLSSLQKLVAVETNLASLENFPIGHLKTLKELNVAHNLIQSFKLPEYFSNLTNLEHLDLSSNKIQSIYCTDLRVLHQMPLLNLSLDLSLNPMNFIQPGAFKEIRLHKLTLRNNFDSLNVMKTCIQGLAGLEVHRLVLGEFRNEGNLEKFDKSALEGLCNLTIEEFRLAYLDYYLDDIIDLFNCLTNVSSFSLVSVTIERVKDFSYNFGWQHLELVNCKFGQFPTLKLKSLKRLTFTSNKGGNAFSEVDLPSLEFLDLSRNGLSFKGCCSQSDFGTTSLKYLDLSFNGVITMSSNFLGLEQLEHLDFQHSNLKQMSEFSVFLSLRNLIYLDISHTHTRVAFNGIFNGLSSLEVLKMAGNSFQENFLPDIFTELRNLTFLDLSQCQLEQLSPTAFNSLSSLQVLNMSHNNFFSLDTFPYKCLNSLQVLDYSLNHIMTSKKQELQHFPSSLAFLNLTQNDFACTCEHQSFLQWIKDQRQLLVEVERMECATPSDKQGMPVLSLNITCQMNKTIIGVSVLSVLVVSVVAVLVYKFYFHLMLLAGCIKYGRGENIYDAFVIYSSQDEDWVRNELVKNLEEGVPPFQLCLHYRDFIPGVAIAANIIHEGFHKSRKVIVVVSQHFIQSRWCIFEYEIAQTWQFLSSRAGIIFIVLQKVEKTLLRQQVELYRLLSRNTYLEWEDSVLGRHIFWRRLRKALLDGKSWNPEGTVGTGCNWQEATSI

Molecule	LPS-dependent NF-κB activation conferred by soluble protein ([1]; LPS 24 h)	LPS-mediated NF-κB activation on transient expression [1]	Cellular distribution with respect to TLR4 [2]	Percentage of GR-1+CD11b+ cells in the lung following LPS challenge ([3]; flow cytometry, control without MD-2s expression 66.7%) [%]	IL-6 concentration in bronchoalveolar lavage fluid (BALF) [3, 5]	KC concentration in the lung homogenate [3, 5]	Recruitment of polymorphonuclear leukocytes (PMN) into the lung [3, 5]	Effect on LPS-induced NF-κB activation mediated by MD-2/TLR4 ([1]; MD-2s plasmid co-transfected with CD14, TLR4, wild-type MD-2 and reporter, LPS 250 ng/ml 5 h)	Effect of soluble form on LPS-induced NF-κB activation ([1]; supernatants with constant MD-2 and increasing MD-2s on TLR4/NF-κB reporter cells, LPS 24 h)	LPS-dependent IL-8 secretion conferred by soluble protein ([4]; culture supernatants added to HEK293 TLR4 reporter cells)	LPS-mediated IL-8 secretion on transient expression ([4]; plasmid transfected with CD14 into HEK293 TLR4/NF-κB reporter cells)
MD-2: full-length human wild-type MD-2, co-receptor of TLR4 [reference compound]	strongly activated NF-κB	activated NF-κB									
B1	could not confer LPS responsiveness	unable to induce LPS-mediated NF-κB activation	same cellular distribution	26.1	reduced	reduced	reduced	significantly inhibited	inhibits NF-κB activation	could not confer LPS responsiveness	unable to induce
